These results are taken from patent US20260226173A1, “COMPOSITIONS INCLUDING ANTI-WT-1 ANTIBODIES & ANTIGEN BINDING FRAGMENTS AND USES THEREOF” (Memorial Sloan-Kettering Cancer Center, priority 2023, published 2026).

Assay [1] deals with WT1 RMF (…)/HLA-A2 complex on cells (human). Description: flow cytometry, primary AML cells (FIG. 18 shows sample 92C per paragraph 796) stained with PE-conjugated isotype control mouse IgG at 3 µg/ml; unstained 124. (In flow cytometry, cells or beads pass a laser one at a time.)
In assay [2] the target is HLA-A2 with endogenous peptides on HLA-A2-positive cells not pulsed with peptide (SKLY-16, normal cells of HLA-A2+ donors) (human). Description: flow cytometry, PBMCs of an HLA-A2 positive healthy donor, CD33 against isotype control.
The target is the same in assay [3]. Description: flow cytometry, whole blood of an HLA-A2 positive healthy donor, neutrophil gate, CD15 against isotype control.
Assay [4] has the same target. As to the kind of experiment: flow cytometry, PBMCs of an HLA-A2 positive healthy donor, CD19 against isotype control.

In assay [1], Iso. (antibody) came in with an MFI of 372.

Turning to Isotype (antibody), in assay [2], the % of PBMCs CD33+ and isotype+ (upper right quadrant) is 0.03%; the % of PBMCs CD33- and isotype+ (lower right quadrant) came to 1.07%. Also, in assay [3], the % of gated neutrophils CD15+ and isotype+ (upper right quadrant) was found to be 0.04%; the % of gated neutrophils CD15- and isotype+ (lower right quadrant) came out at 0.02%. Besides, in assay [4], the % of PBMCs CD19+ and isotype+ (upper right quadrant) came to 0.91%; the % of PBMCs CD19- and isotype+ (lower right quadrant) came to 0.05%.
